Entries after “also recorded” stand apart in the source; their conditions may differ.
Tests used:
Format in all cases: cell-based
[1] = molecular target: T1, hinge region of human CEP55 (Homo sapiens, UniProt Q53EZ4); test: Modified mammalian two-hybrid assay in HEK293T cells, TEX14 fragment binding to CEP55; conditions: transfected HEK293T cells; FIG. 5C, 5E, 5F, FIG. 7
T1 construct: expressed in transfected cells; host or cells: HEK293T
T1 sequence (Q53EZ4 157-236 limits assumed): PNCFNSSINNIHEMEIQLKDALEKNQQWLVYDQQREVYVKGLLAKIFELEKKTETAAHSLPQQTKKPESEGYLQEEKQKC
Text: (§1) A modified form of the CheckMate/Flexi vector mammalian two-hybrid system (Promega) was used to study the interactions of proteins in mammalian cells. A pGL4Cherry (mCherry/GAL4UAS/Hygro) vector was engineered from the pGL4.31 (luc2P/GAL4UAS/Hygro) vector by replacing the Luc2P firefly luciferase reporter sequence with the mCherry sequence. The pACT vector expresses a protein of interest, “X,” fused to a transcriptional activation domain (VP16-AD) and the pBIND vector expresses the other protein of interest, “Y,” fused to a DNA-binding domain (GAL4-BD) and Renilla luciferase by separate promoters. […]
(§2) Sequences encoding the truncated TEX14, CEP55, ALIX, or TSG101 fragments were cloned into the multiple cloning regions of the pACT and pBIND vectors. Some exemplary constructs used are summarized in FIGS. 6A and B. pACT (protein X), pBIND (protein Y), and pGL4Cherry (mCherry/GAL4UAS/Hygro) were transiently cotransfected into HEK293T cells using Fugene 6/HD transfection reagent, and the cells were examined 44 h later for red fluorescence by using an Axiovert 40 CFL microscope (Carl Zeiss). […] The cells were lysed by using Renilla luciferase assay reagent (Promega), and red fluorescence and Renilla luciferase were measured by using a Polar Star Omega microplate reader (BMG LabTech). […]

[2] = molecular target: T2, ALIX-CEP interaction (Homo sapiens, UniProt Q53EZ4); test: Competition assay using the mammalian two-hybrid system, ALIX-CEP55 interaction; conditions: pcDNA3 overexpression in HEK293T cells; FIG. 6A, FIG. 7 left
T2 construct: expressed in transfected cells; host or cells: HEK293T
T2 sequence (Q53EZ4 157-236 limits assumed): T1 sequence (Q53EZ4 157-236 limits assumed)
Text: as §1, §2

[3] = molecular target: T3, TSG-CEP interaction (Homo sapiens, UniProt Q53EZ4); test: Competition assay using the mammalian two-hybrid system, TSG101-CEP55 interaction; conditions: pcDNA3 overexpression in HEK293T cells; FIG. 6B, FIG. 7 center
T3 construct: expressed in transfected cells; host or cells: HEK293T
T3 sequence (Q53EZ4 157-236 limits assumed): T1 sequence (Q53EZ4 157-236 limits assumed)
Text: as §1, §2

[4] = test system: full-length ALIX localization to the midbody; test: Cotransfection with YFP full-length ALIX into HeLa cells, ALIX midbody localization and interconnected cells
Text: The mouse TEX14 open reading frame (ORF) sequence was ligated into the BamHI and SalI sites of the pCMV-tag2 vector (Stratagene), which contains an N-terminal FLAG tag sequence. The mouse CEP55 ORF was cloned from testis cDNA and subcloned into the EcoRI and SalI sites of the pcDNA3 (Invitrogen) vector containing an N-terminal MYC tag sequence. The truncated and mutant TEX14 (TX, AAAX3A) and the full-length ALIX sequences were ligated into the BamHI and NotI or the NotI and XbaI sites, respectively, of the pcDNA3 vectors, while mCherry or YFP sequences were subcloned into the KpnI and BamHI sites. Purified plasmid DNA was obtained by using a QIAprep spin miniprep kit (Qiagen), and all constructs were sequenced for integrity.
HEK293T or HeLa cells were maintained in Dulbecco's modified Eagle medium (Invitrogen) supplemented with 10% fetal calf serum (SAFC Biosciences), 1% L-glutamine (Invitrogen), and penicillinstreptomycin (Invitrogen) and grown on poly-D-lysine (Sigma)-coated coverslips in culture plates at 37 C° in a humidified 5% CO2 atmosphere. For immunoprecipitation and immunoblot experiments, cells were seeded at 50 to 80% confluence in […] (Corning) and transiently transfected using Fugene 6/HD transfection reagent (Roche) according to the manufacturer's instructions. […]

- effect of overexpression on ALIX-CEP interaction [2]: suppressed
- effect of overexpression on TSG-CEP interaction [3]: suppressed
Substance: TX: GPPX3Y region of human TEX14, the 60 amino acids from 754 to 813 (LRNIEQILDEVEMKQKEQEERMSLWATSREFTNAYKLPLAVGPPSLNYIPPVLQLSGGQK; UniProt Q8IWB6 754-813, looked up, fragment)
- binding to CEP55 hinge region (mCherry/Renilla luciferase or mCherry/YFP ratio) [1]: strongly binds; also recorded: typically stronger than the ALIX-CEP or TSG-CEP interactions
- full-length ALIX localization to the midbody ([4]; HeLa cells cotransfected with pcDNA-mCherry-truncated TEX14 and pcDNA-YFP full-length ALIX): inhibits full-length ALIX localization to the midbody
- interconnecting cells (intercellular bridges) in transfected cells ([4]; HeLa cells, FIG. 6G left): several interconnecting cells were visualized

— patent US20130225503A1, “TEX14 PEPTIDES AS NOVEL ANTITUMOR AGENTS” (Baylor Licnensing Group, priority 2009, published 2013)
